Target: Myc-tagged Bfl-1 (human, UniProt Q16548 1-175)
Assay: fluorescence polarisation; competition: 0–10 μM unlabeled peptide titrated into 50 nM c-myc-tagged receptor plus 25 nM fluoresceinated BIM; 25 mM Tris pH 7.8, 50 mM NaCl, 1 mM EDTA, 5% DMSO, 0.001% v/v Triton-X; 23°C, 3 hr; fit to a complete competitive binding model
Conditions: both partners purified

Myc-tagged Bfl-1, sequence (Q16548 whole entry): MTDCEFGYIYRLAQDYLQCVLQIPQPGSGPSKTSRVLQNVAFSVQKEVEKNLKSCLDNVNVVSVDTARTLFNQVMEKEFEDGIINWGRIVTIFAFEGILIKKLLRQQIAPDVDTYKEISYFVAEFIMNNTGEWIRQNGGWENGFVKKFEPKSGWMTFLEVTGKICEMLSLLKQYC

Ki: 720 nM
B1: BIM-FS2 (peptide)
chain: RPVIWIAQGLRRAGDEVNAYVAR
modifications: probably N-terminal acetyl and C-terminal amide; 23-mer 1f-4g assumed by analogy with PUMA/FS2; printed E2bV read as E2aV (2b is Ile in BIM, 2a is Glu and FS2 has Val at 2a); A2eA is no change / Myc …

From publication PMC5464773, “Epistatic mutations in PUMA BH3 drive an alternate binding mode to potently and selectively inhibit anti-apoptotic Bfl-1” (eLife, 2017)
